# Laboratory results reported in US12012619B2, “Methods of use for an NADPH-regeneration system based on a monomeric isocitrate dehydrogenase” (INDUSTRY FOUNDATION OF CHONNAM NATIONAL UNIVERSITY, priority 2021, dated 2024).
# How the values were obtained:
# [1] = molecular target: T1, CgIDH (Corynebacterium glutamicum, UniProt P50216); test: Enzyme activity inhibitory effect by α-ketoglutarate on CgIDH; assay type: biochemical; settings: 10 mM α-ketoglutarate added; 5 nM CgIDH
# T1 construct: His-tag (His6, pET24a-derived LEHHHHHH) (C); made in house; host or cells: E. coli BL21 (DE3)
# T1 sequence (P50216 with tags, fused parts or gaps): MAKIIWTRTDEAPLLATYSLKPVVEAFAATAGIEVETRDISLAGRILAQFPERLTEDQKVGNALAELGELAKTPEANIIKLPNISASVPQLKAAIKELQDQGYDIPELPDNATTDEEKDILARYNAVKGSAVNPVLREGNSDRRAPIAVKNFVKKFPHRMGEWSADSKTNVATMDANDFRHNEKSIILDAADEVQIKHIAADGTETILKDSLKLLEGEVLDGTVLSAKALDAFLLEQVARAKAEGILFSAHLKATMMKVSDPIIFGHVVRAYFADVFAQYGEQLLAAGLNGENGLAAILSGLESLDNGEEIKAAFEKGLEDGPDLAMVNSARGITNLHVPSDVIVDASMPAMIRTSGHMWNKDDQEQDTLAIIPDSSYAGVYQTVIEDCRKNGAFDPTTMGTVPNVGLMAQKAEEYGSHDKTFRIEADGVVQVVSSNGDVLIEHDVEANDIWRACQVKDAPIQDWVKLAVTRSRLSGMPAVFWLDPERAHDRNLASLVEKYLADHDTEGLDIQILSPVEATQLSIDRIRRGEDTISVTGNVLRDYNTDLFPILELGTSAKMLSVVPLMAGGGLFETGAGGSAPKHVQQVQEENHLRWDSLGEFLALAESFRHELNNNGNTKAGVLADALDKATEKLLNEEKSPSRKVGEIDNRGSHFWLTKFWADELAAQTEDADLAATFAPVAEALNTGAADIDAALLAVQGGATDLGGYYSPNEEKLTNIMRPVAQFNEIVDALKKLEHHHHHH
# Method: (§1) In order to confirm an enzyme activity inhibitory effect by α-ketoglutarate, which is an enzyme reaction product of the recombinant protein produced in the present invention, a reaction product, in which 5 nM of CgIDH and 5 nM AvIDH were each added to a reaction solution containing 100 mM potassium phosphate buffer (pH 7.4), 0.8 mM manganese sulfate, 40 mM DL-isocitric acid, and 0.5 mM NADP, was prepared. Thereafter, α-ketoglutarate was added for each concentration to proceed the reaction as described in Example 5, and the degree of increase of NADPH was measured. Here, an experimental group to which α-ketoglutarate was not added was used as a control group.
# [2] = molecular target: T2, AvIDH (Azotobacter vinelandii, UniProt P16100); test: Enzyme activity inhibitory effect by α-ketoglutarate on AvIDH; assay type: biochemical; settings: 20 mM α-ketoglutarate added; 5 nM AvIDH
# T2 construct: His-tag (His6, pET24a-derived LEHHHHHH) (C); made in house; host or cells: E. coli BL21 (DE3)
# T2 sequence (P16100 with tags, fused parts or gaps): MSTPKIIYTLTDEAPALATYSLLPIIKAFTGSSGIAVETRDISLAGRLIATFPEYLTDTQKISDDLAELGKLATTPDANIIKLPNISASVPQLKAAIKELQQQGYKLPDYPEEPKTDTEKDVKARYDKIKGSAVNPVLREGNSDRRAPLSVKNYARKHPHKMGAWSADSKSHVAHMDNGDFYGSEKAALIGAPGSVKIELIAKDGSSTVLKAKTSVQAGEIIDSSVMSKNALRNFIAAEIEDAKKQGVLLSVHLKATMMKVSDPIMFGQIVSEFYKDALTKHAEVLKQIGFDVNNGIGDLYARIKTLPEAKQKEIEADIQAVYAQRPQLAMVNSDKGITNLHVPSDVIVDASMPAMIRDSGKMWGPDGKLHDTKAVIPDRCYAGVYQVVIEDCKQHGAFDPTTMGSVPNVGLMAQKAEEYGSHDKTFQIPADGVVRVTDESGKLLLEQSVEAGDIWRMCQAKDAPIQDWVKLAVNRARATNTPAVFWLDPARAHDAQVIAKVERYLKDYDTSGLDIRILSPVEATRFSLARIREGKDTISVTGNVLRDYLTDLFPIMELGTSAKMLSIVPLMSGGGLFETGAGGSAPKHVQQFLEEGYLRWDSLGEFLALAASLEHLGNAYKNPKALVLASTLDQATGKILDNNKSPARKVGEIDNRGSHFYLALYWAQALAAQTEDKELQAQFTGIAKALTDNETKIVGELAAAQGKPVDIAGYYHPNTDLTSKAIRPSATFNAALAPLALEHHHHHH
# Method: as §1
# [3] = test system: NADPH regeneration; test: Specific activity analysis of recombinant IDH protein (NADPH increase measured by fluorescence); assay type: biochemical; settings: 5 nM enzyme; for specific activity: 100 mM potassium phosphate buffer pH 7.4, 0.8 mM MnSO4, 0.8 mM DL-isocitric acid, 0.5 mM NADP+
# Method: In order to confirm the degree of NADPH regeneration by the activity of the IDH recombinant protein, CgIDH and AvIDH were each added to a reaction solution containing 100 mM potassium phosphate buffer (pH 7.4), 0.8 mM manganese sulfate (MnSO4), 0.8 mM DL-isocitric acid, and 0.5 mM NADP+ so that the final concentrations were 5 nM, and the degree of increase of NADPH depending on the enzyme activity was measured with a spectrophotometer. When fluorescence was measured using a spectrophotometer, an excitation wavelength was set to 350 nm and an emission wavelength was set to 450 nm, and the measurement results are shown in FIG. 7.
# [4] = test system: NADPH regeneration; test: Kinetic constant analysis of purified recombinant protein; assay type: biochemical; settings: wild-type CgIDH and AvIDH parameters as control groups
# Method: The analysis of kinetic properties related to an enzyme activity of the recombinant protein, that is, a kinetic constant, was performed by the following procedure.
# The analysis of kinetic activity for each of the recombinant proteins purified in Example 2 was performed based on the method described in Chen, R. & Yang, H. Biochemistry and Biophysics, 383(2):238-245 (2000); and Watanabe, S. Microbiology 151(4):1083-1094 (2005).
# Here, a Km (uM) value representing the affinity of the enzyme to the substrate as a reaction constant used in enzyme kinetics, a Kcat(S-1) value, which means the metabolic turnover number of the enzyme, and a Kcat/Km (S-1, M-1) value representing a reaction efficiency of the enzyme, were determined.
# [5] = molecular target: cytochrome P450 BM3 (Priestia megaterium, UniProt P14779); test: Coupling reaction with cytochrome P450 BM3, HPLC analysis of hydroxylation product of substrate; assay type: biochemical, Bacillus megaterium; settings: coupling reaction 5 min; control = NADPH itself added; CgIDH 10 nM or AvIDH 5 nM, 500 nM P450 BM3, 2 mM omeprazole
# Method: In the above reaction, in order to confirm that the activity of cytochrome P450 BM3 is maintained by substantial NADPH regeneration, and the hydroxylation reaction of omeprazole, which is one of the substrates, occurs, to 1 mL of a reaction solution containing 100 mM potassium phosphate buffer (pH 7.4), 0.8 mM manganese sulfate, 40 mM DL-isocitric acid, 0.5 mM NADP, and 2 mM omeprazole, CgIDH and cytochrome P450 BM3 were added so that the final concentrations were 10 nM and 500 nM, respectively, and AvIDH and cytochrome P450 BM3 were added so that the final concentrations were 5 nM and 500 nM, respectively, to prepare a reaction product.
# The reaction mixture was recovered by 90 uL each time, mixed with 90 uL of methanol to stop the reaction, and then HPLC analysis was performed. Specific HPLC performance conditions are as follows: • HPLC was performed using an Alliance HPLC system (Waters). • A SunFire 18C column was used as a column • The amount of sample loading was set to 20 uL. • As a HPLC mobile phase, 30% acetonitrile was flowed at a flow rate of 1 mL/min, and an eluate was measured with ultraviolet (UV) light at 302 nm. • Analysis was performed using an Empower 3 (Waters) program. […]
# [6] = Storage stability of recombinant protein; assay type: physicochemical; settings: storage at 4° C. for 30 days; 5 nM enzyme
# Method: In order to evaluate the stability of the recombinant protein produced in the present invention, after a certain period of time, each of the recombinant proteins stored at 4° C. was added to a reaction solution containing 100 mM potassium phosphate buffer (pH 7.4), 0.8 mM manganese sulfate, 40 mM DL-isocitric acid, and 0.5 mM NADP+ so that the final concentration was 5 nM, the reaction was proceeded as described in Example 5, and the degree of increase of NADPH was measured.
# Sequence of cytochrome P450 BM3 (P14779 whole entry): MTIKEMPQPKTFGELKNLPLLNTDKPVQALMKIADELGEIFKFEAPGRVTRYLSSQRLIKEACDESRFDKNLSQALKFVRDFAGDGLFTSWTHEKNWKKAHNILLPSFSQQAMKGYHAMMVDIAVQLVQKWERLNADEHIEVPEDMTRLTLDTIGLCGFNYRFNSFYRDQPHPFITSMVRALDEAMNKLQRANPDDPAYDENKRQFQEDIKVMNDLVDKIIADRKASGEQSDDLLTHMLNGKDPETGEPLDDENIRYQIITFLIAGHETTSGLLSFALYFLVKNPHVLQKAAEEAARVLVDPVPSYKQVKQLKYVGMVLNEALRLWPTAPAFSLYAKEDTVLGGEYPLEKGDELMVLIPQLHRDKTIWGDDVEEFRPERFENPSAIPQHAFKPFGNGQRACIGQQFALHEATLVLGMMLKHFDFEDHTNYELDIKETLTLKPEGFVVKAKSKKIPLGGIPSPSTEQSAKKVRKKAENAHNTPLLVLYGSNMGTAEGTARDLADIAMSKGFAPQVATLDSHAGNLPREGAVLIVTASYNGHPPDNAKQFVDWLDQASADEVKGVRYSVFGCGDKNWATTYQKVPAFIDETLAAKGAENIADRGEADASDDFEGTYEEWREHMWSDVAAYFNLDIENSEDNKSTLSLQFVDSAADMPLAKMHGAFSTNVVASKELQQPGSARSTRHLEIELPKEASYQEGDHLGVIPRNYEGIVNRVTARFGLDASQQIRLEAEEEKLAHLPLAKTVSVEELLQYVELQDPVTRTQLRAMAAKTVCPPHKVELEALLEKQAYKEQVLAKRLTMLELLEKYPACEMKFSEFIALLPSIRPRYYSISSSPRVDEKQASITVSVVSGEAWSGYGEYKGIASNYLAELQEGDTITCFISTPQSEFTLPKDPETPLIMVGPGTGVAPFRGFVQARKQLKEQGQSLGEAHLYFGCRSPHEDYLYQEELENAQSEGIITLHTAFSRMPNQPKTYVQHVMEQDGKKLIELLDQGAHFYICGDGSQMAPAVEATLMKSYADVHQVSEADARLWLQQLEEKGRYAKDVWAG
Molecule,reduction of enzyme activity [1] [%],reduction of enzyme activity [2] [%],specific activity [3] [U/mg],Kcat compared with the wild-types [4],elution amount of 5′-hydroxyomeprazole based on the elution amount produced in the control group [5] [%],enzyme activity after storage [6],enzyme activity (enzyme reaction slope) compared with AvIDH at the same amount of protein [3]
O=C(O)CCC(=O)C(=O)O [α-ketoglutarate],30,30,,,,,
"AvIDH: recombinant monomeric isocitrate dehydrogenase from Azotobacter vinelandii, SEQ ID NO: 2, C-terminal histidine tag (protein, C-terminal His tag; AvIDH protein) MSTPKIIYTLTDEAPALATYSLLPIIKAFTGSSGIAVETRDISLAGRLIATFPEYLTDTQKISDDLAELGKLATTPDANIIKLPNISASVPQLKAAIKELQQQGYKLPDYPEEPKTDTEKDVKARYDKIKGSAVNPVLREGNSDRRAPLSVKNYARKHPHKMGAWSADSKSHVAHMDNGDFYGSEKAALIGAPGSVKIELIAKDGSSTVLKAKTSVQAGEIIDSSVMSKNALRNFIAAEIEDAKKQGVLLSVHLKATMMKVSDPIMFGQIVSEFYKDALTKHAEVLKQIGFDVNNGIGDLYARIKTLPEAKQKEIEADIQAVYAQRPQLAMVNSDKGITNLHVPSDVIVDASMPAMIRDSGKMWGPDGKLHDTKAVIPDRCYAGVYQVVIEDCKQHGAFDPTTMGSVPNVGLMAQKAEEYGSHDKTFQIPADGVVRVTDESGKLLLEQSVEAGDIWRMCQAKDAPIQDWVKLAVNRARATNTPAVFWLDPARAHDAQVIAKVERYLKDYDTSGLDIRILSPVEATRFSLARIREGKDTISVTGNVLRDYLTDLFPIMELGTSAKMLSIVPLMSGGGLFETGAGGSAPKHVQQFLEEGYLRWDSLGEFLALAASLEHLGNAYKNPKALVLASTLDQATGKILDNNKSPARKVGEIDNRGSHFYLALYWAQALAAQTEDKELQAQFTGIAKALTDNETKIVGELAAAQGKPVDIAGYYHPNTDLTSKAIRPSATFNAALAPLALEHHHHHH",,,28,slight decrease,114,did not decrease,
"CgIDH: recombinant monomeric isocitrate dehydrogenase from Corynebacterium glutamicum, SEQ ID NO: 1, C-terminal histidine tag (protein, C-terminal His tag; CgIDH protein) MAKIIWTRTDEAPLLATYSLKPVVEAFAATAGIEVETRDISLAGRILAQFPERLTEDQKVGNALAELGELAKTPEANIIKLPNISASVPQLKAAIKELQDQGYDIPELPDNATTDEEKDILARYNAVKGSAVNPVLREGNSDRRAPIAVKNFVKKFPHRMGEWSADSKTNVATMDANDFRHNEKSIILDAADEVQIKHIAADGTETILKDSLKLLEGEVLDGTVLSAKALDAFLLEQVARAKAEGILFSAHLKATMMKVSDPIIFGHVVRAYFADVFAQYGEQLLAAGLNGENGLAAILSGLESLDNGEEIKAAFEKGLEDGPDLAMVNSARGITNLHVPSDVIVDASMPAMIRTSGHMWNKDDQEQDTLAIIPDSSYAGVYQTVIEDCRKNGAFDPTTMGTVPNVGLMAQKAEEYGSHDKTFRIEADGVVQVVSSNGDVLIEHDVEANDIWRACQVKDAPIQDWVKLAVTRSRLSGMPAVFWLDPERAHDRNLASLVEKYLADHDTEGLDIQILSPVEATQLSIDRIRRGEDTISVTGNVLRDYNTDLFPILELGTSAKMLSVVPLMAGGGLFETGAGGSAPKHVQQVQEENHLRWDSLGEFLALAESFRHELNNNGNTKAGVLADALDKATEKLLNEEKSPSRKVGEIDNRGSHFWLTKFWADELAAQTEDADLAATFAPVAEALNTGAADIDAALLAVQGGATDLGGYYSPNEEKLTNIMRPVAQFNEIVDALKKLEHHHHHH",,,57,slight decrease,126,did not decrease,higher enzyme activity
